Measurements: the NTF2 design screens of Basanta et al. (2020)

Assay: protease stability score; higher = more stable; yeast display proteolysis, trypsin and chymotrypsin;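 also: log10 excess protease needed over predicted unfolded state with 0 meaning unfolded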

Sequence | protease stability score
DDEAVRQIQTMVRNQNTGDPDKVAEQMDPNVQVDYGDTNLQGREHVHHWLEELKRQARFELTSVKAESQGDNIHVQVDRKVNVNGQPRRDEMHFEVRVHNGRIRSVDIQFDPDKYRQIMS | -0.28
DEDQAKEQVDNARKVINQGNFSEAVKTADPNVKAAYGEKRLEGRQVLHTYQEVFQRRVDHVHVRRVDLKGEKATIKAELTINGRTTTMRMVVEVSNGRLKNFYVKYK | 0.145
DEELQELATRQMEALHTNDEKQWVDLFDPNARQRYGDKTIKGREQFSQHLRDMQRHMRVQIHTFSAQVSNGDIHLKIDQLNNVNGTPYRDTVHLEFRVHNGRVKEVILHVSEDQQKKIER | 0.918
DDEKLTTVLKELMKAFEKGDNKKFVDLLDKDVTIDYGDKKVHGRDEATEVFHKIRRQVDHVQVSDMKFENGRASIRATLHFNGKNMEVTFEAVIKNGRIKHAQVEVRDPDELRKMES | 1.03
DEEDQAKELAERYLEAMENGDEEKNARLADKDVSLTVGDKHVHGREELKKWFRTFVHRVDHVEIQVHDVKVSNGNATIDAEIKYTFNGRDVKKQVLMHAHVKNGELTLKRMTFE | 1.02
DEKNMRVVETYLKALTRGDPDQAMRQVDEDVELTVGDKEVKGREEFSKLVKKWQDQARFSLQIHRVKVHENHVNINAEVTWDVNGKPQSFSHIIHARVHNGRIKHMSWEVPTEEWQNIEK | 1.29
DERLADQVVELLHVMEDGDEKRVDQLIDKDVKFKVGDKDYHGDETARRRAKNLRDQMRIEYDLKDYRTNGDNAILNAEVRMNINGQPYSHHVKIVVRARNGKVKHLQMSFDEETQKKVDQ | 0.909
DDEELKRQAEEFLKNVKTGNHQELVKQMDPNVKVDVGDKRLQGRETAAHWFVKLVEQVDDFHVQTFDVHGETLEMHFVMEINGHRLQMVLRAEVHNGHIQEMSIDYRDPDRLRKVLS | 0.392
DEENSKVYEEWLKAVHNGDPDQVRRQIDPNVKINVGEFDLKGRETVAEHVKKMKDEAHVDQDIHSIEIQGDKVRVDAQYSAEINGKPTSNHLDASVNVKNGQIKRVDVEFSK | -0.131
DEDVKKLFEDWLRALQTNNPDEVNEMADPNVTVKVGNKVVHGREQLNKDLKEETKHIRVTYHHVDLTVHNGRAKARLDVTVNVNGRPVRFQFNVTVHARNGRVVSMHVQIPHEVLETIKQ | 1.57
DEDAARSAEHLQRHNDFDEFARRADENVRLRVGDFRFQGREQVIRFMKRFTDRFDHVQFRRMDFHGNRMQAEFVAEVNGKTVKMKESFQIDNGRVHSVTQEATSEEDQEELKRLID | 0.254
DEENLRTLAQEVKDILQTGDEEKLKEMLDKDVRLEVGDHVYEGSENAAKAANHWKERADHIQVDSIEIHGNELRIDVRVNVNGKNIDIDIVVTFSNGRIREMKFQYRDEDEKRQLER | 0.809
DEHVEKRVDEWWKALRQNNPDEANKNMDPNAKLHIGDKTVHGREEAKRQIENRFKEMRFSYKVRHLTAENGEVEIEATFKVEHNGQPRSRSMRMSINVHNGRIVDIQVDIDPRDQQKFRK | 0.041
DEKLLDLLEKILQAEHENDPDQARELADPNVKYRYGDKSVNGRHEWVKDLERKTQKIKVEYKRIQVDAKGDKAHANVHMTVNHNGKPDKVLMEIVVRAHNGKVTELTVHEDK | 0.041
DTHNFKKYMELLKALETGDERTARKMADPNAEFVIGDKEWHGMEEFAQTRVEQFKEQSIEIKILDYKDKNGQVHIRYRIRVNRNGKPDEKEVVVRIENHNGRIHHVEYRDTG | 0.09
DEEDVKTMIRIINTGDPDKFEKYFDPNASVRIGDHTFKGNKQVSEFIRRMRRKADHIEVKRVKTTNGRADIDLVVTFNGREIRFHVHAEAHNGKAERQELKVTDPNQQKELNNLVH | 0.837
KEETVETLWKQMVEAVQKNNEEQLKKLGKDDVKVEYGGKKYEGTEQMATQLKKFMDLGAKFELKRYKVEGNHVEADIQVHVGGKTVHVTVRVEYDGGKLKKVQVHVSEEAEEAYKKG | 1.24
DDEDADKAQRILETGNPDEMDKLLDKDVRVVVGDKEYKGREQVSEFFRRLLEQVDTITFLSVEIHNGTVQARVLVNVNGHNVDVVFQFVVHNGKLKHAKVEARNEEEQKKLDRALS | 1.55
DEKQAKELADEYIKAFEEGDPDKHQELVDKDAQVNYGDKTLHGREEFRKLVEELRRQADHISVHNVDYQGNKVVVHYVVDVNGHKVELSYTVQYHDGRMKQASVSYRSEDLKREQEQ | 0.384
DETEDKKAQQLAKAINDGDEHDVRKMMDKDVKVDVGDKQLHGREQAAKWMSRHRREQRRTIEVTDVKMHGEKAELDANLRVDVNGQPRTHRVRIIVSITNGRLQHLEIHMDPRFEQSVQS | -0.25
DEHAKHVVETYMTAQKHNNPKDAQKMVDPNARFSVGDKEVQGSEQLDKEIQRDNKEIREHVESMSVDVDGDKAHVDRTVKFQRNGKPHKLKVHLNFRLTNGRIKTVQVDEDG | -0.308
DEDAIRSVEKMLQDRRTGNPHEVQKMFDPNAQVDVGDKTVQGRENIKDHVETDLRQSRFHMEIKHVQAHNGQIDIDAERSYTRNGQPDSNRVEIVIDIKNGKIRSVKVRTDD | -0.488
DEERDERVATKVAEAMATGDPEKVMEQAPPNAEMRIGDKHFTGEEHIKQALLEWKRDADHIQVDHVSVQNGRAHMDMQFTINGRKRRYTLRVEVHNGKAKTVSVREP | 0.315
DDEIRRQVHRYLRALQRNDEKLASDLLDPNAKFVYGDKTVHGREQHKKELRKMKDQWEFSVDVKKVKVQGNKIKVTADIRVDVNGRPMSHRYVVIFHAHNGKIKNAEFRMDEKYYRDVKR | 0.208
DEHEAEKLLKLLTENDPRQFQNEADKNVRVFYGDKEVHGREQFHTWVQRVRERVDTLEIKRVETRPGRLEVKFRVNVNGQTLEMVLVIVVHNGKIQDVKLHARDHDVMKRWKEAVS | 0.82
